# Legend:
# [1] = biological target: rHuman P-Cadherin/Fc Chimera, CF (R&D Systems Cat#861-PC) (human) (UniProt P22223); assay: MSD ECL multi-spot plate; Fab 17.5 nM; blank spot 304
# [2] = biological target: rHuman P-Cadherin/Fc Chimera, CF (R&D Systems Cat#861-PC) (human) (UniProt P22223); assay: MSD ECL multi-spot plate; Fab 280 nM; blank spot 1691
# [3] = biological target: rHuman P-Cadherin/Fc Chimera, CF (R&D Systems Cat#861-PC) (human) (UniProt P22223); assay: MSD ECL multi-spot plate; Fab 4.375 nM; blank spot 305
# [4] = biological target: rHuman IGF-1 sR (IGF-1 sR), CF (R&D Systems Cat#391-GR) (human) (UniProt P08069); assay: MSD ECL multi-spot assay, antigen spotted on plate, Fab 0.28 uM; blank spot 1773
# [5] = biological target: rHuman ErbB2/Fc Chimera, CF (R&D Systems Cat#1129-ER) (human) (UniProt P04626); assay: as above
# [6] = biological target: rHuman CD44/Fc Chimera, CF (R&D Systems Cat#3660-CD) (human) (UniProt P16070); assay: as above
# [7] = biological target: rHuman HGF R/c-MET/Fc Chimera, CF (R&D Systems Cat#358-MT/CF) (human) (UniProt P08581); assay: as above
# [8] = biological target: rHuman Notch-1/Fc Chimera, CF (R&D Systems Cat#3647-TK) (human) (UniProt P46531); assay: as above
# [9] = biological target: rHuman P-Cadherin/Fc Chimera, CF (R&D Systems Cat#861-PC) (human) (UniProt P22223); assay: MSD ECL multi-spot plate; Fab 70 nM; blank spot 635
# [10] = biological target: rHuman EGF R/Fc Chimera, CF (R&D Systems Cat#344-ER) (human) (UniProt P00533); assay: MSD ECL multi-spot assay, antigen spotted on plate, Fab […]; blank spot 1129
# [11] = biological target: Recombinant Human DLL4 (R&D Systems Cat#1506-D4/CF) (human) (UniProt Q9NR61); assay: as above
# [12] = biological target: rHuman ErbB2/Fc Chimera, CF (R&D Systems Cat#1129-ER) (human) (UniProt P04626); assay: as above
# [13] = biological target: rHuman CD44/Fc Chimera, CF (R&D Systems Cat#3660-CD) (human) (UniProt P16070); assay: as above
# [14] = biological target: rHuman HGF R/c-MET/Fc Chimera, CF (R&D Systems Cat#358-MT/CF) (human) (UniProt P08581); assay: as above
# [15] = biological target: rHuman Erythropoietin R/Fc Chimera, CF (R&D Systems Cat#963-ER) (human) (UniProt P19235); assay: as above
# Sequence of rHuman Erythropoietin R/Fc Chimera, CF (R&D Systems Cat#963-ER) (human) (P19235 25-250, change not shown): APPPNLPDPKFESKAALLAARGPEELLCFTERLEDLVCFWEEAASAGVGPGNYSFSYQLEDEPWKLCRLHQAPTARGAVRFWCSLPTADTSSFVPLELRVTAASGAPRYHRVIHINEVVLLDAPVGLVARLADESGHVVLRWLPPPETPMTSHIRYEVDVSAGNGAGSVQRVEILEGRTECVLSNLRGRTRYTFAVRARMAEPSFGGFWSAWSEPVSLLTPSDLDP
# [16] = biological target: rHuman Notch-1/Fc Chimera, CF (R&D Systems Cat#3647-TK) (human) (UniProt P46531); assay: as above
# [17] = biological target: rHuman EGF R/Fc Chimera, CF (R&D Systems Cat#344-ER) (human) (UniProt P00533); assay: ECL (MSD Multi-Spot) titration, antigen spotted on plate; Fab 0.0624 µM; blank spot 960
# [18] = biological target: Recombinant Human DLL4 (R&D Systems Cat#1506-D4/CF) (human) (UniProt Q9NR61); assay: as above
# [19] = biological target: rHuman ErbB2/Fc Chimera, CF (R&D Systems Cat#1129-ER) (human) (UniProt P04626); assay: as above
# [20] = biological target: rHuman CD44/Fc Chimera, CF (R&D Systems Cat#3660-CD) (human) (UniProt P16070); assay: as above
# [21] = biological target: rHuman HGF R/c-MET/Fc Chimera, CF (R&D Systems Cat#358-MT/CF) (human) (UniProt P08581); assay: as above
# [22] = biological target: rHuman Erythropoietin R/Fc Chimera, CF (R&D Systems Cat#963-ER) (human) (UniProt P19235); assay: as above
# [23] = biological target: rHuman Notch-1/Fc Chimera, CF (R&D Systems Cat#3647-TK) (human) (UniProt P46531); assay: as above
# [24] = biological target: rHuman EGF R/Fc Chimera, CF (R&D Systems Cat#344-ER) (human) (UniProt P00533); assay: ECL (MSD Multi-Spot) titration, antigen spotted on plate; Fab […]; blank spot 4357
# [25] = biological target: Recombinant Human DLL4 (R&D Systems Cat#1506-D4/CF) (human) (UniProt Q9NR61); assay: as above
# [26] = biological target: rHuman ErbB2/Fc Chimera, CF (R&D Systems Cat#1129-ER) (human) (UniProt P04626); assay: as above
# [27] = biological target: rHuman CD44/Fc Chimera, CF (R&D Systems Cat#3660-CD) (human) (UniProt P16070); assay: as above
# [28] = biological target: rHuman HGF R/c-MET/Fc Chimera, CF (R&D Systems Cat#358-MT/CF) (human) (UniProt P08581); assay: as above
# [29] = biological target: rHuman Erythropoietin R/Fc Chimera, CF (R&D Systems Cat#963-ER) (human) (UniProt P19235); assay: as above
# [30] = biological target: rHuman Notch-1/Fc Chimera, CF (R&D Systems Cat#3647-TK) (human) (UniProt P46531); assay: as above
# [31] = biological target: rHuman EGF R/Fc Chimera, CF (R&D Systems Cat#344-ER) (human) (UniProt P00533); assay: ECL (MSD Multi-Spot) titration, antigen spotted on plate; Fab 0.312 µM; blank spot 1977
# [32] = biological target: Recombinant Human DLL4 (R&D Systems Cat#1506-D4/CF) (human) (UniProt Q9NR61); assay: as above
# [33] = biological target: rHuman ErbB2/Fc Chimera, CF (R&D Systems Cat#1129-ER) (human) (UniProt P04626); assay: as above
# [34] = biological target: rHuman CD44/Fc Chimera, CF (R&D Systems Cat#3660-CD) (human) (UniProt P16070); assay: as above
# [35] = biological target: rHuman HGF R/c-MET/Fc Chimera, CF (R&D Systems Cat#358-MT/CF) (human) (UniProt P08581); assay: as above
# [36] = biological target: rHuman Erythropoietin R/Fc Chimera, CF (R&D Systems Cat#963-ER) (human) (UniProt P19235); assay: as above
# [37] = biological target: rHuman Notch-1/Fc Chimera, CF (R&D Systems Cat#3647-TK) (human) (UniProt P46531); assay: as above
substance,measurement,setting,value
Fab VH1-46_IGHD2-15*01_IGHJ2*01 & L12_IGKJ1*01,ECL signal,[1],949 ECL signal
same,ECL signal,[2],5400 ECL signal
same,ECL signal,[3],469 ECL signal
same,ECL signal,[4],4640
same,ECL signal,[5],4310
same,ECL signal,[6],4560
same,ECL signal,[7],5180
same,ECL signal,[8],5280
same,ECL signal,[9],1820 ECL signal
Fab VH1-46_IGHD7-27*01_IGHJ2*01 & L6_IGKJ1*01,ECL signal,[10],2500
same,ECL signal,[11],3770
same,ECL signal,[12],2450
same,ECL signal,[13],2280
same,ECL signal,[14],3120
same,ECL signal,[15],4130
same,ECL signal,[16],3950
same,ECL signal,[17],2420
same,ECL signal,[18],2580
same,ECL signal,[19],2150
same,ECL signal,[20],2110
same,ECL signal,[21],2450
same,ECL signal,[22],2680
same,ECL signal,[23],2350
same,ECL signal,[24],7830
same,ECL signal,[25],10900
same,ECL signal,[26],7580
same,ECL signal,[27],7600
same,ECL signal,[28],10300
same,ECL signal,[29],9480
same,ECL signal,[30],9450
same,ECL signal,[31],4330
same,ECL signal,[32],5480
same,ECL signal,[33],3660
same,ECL signal,[34],4170
same,ECL signal,[35],4690
same,ECL signal,[36],5020
same,ECL signal,[37],4460
